From US20050118674A1, “Engineering of Controlled Deamidation Rates in Peptides, Proteins, and Similar Structures” (priority 2003, published 2005) come the findings set out here.

The first data set in a line: First-order nonenzymatic deamidation of pentapeptides in Tris buffer. To be noted: pH 7.4, 37.0° C., 0.15 M Tris HCl; Asn pentapeptides. The format is physicochemical. A digest of the protocol:
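First-order deamidation rates determined for XxxAsnYyy and XxxGlnYyy pentapeptides in 0.15 M Tris buffer, pH 7.4, 37° C. Not all values were measured directly: several Asn rates were estimated and most Gln rates came from surface fitting.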
With “GlyProAsnIleGly (GPNIG; printed: GlyProAsnIleGly)”, the “First-Order Deamidation Halftimes of GlyXxxAsnYyyGly” value was found to be 455 days. On the same count and under the same terms, then “GlyLeuAsnValGly (GLNVG; printed: GlyLeuAsnValGly)”, with 294 days; and “GlyHisAsnThrGly (GHNTG; printed: GlyHisAsnThrGly)”, with 47.2 days; and “GlyAspAsnTyrGly (GDNYG; printed: GlyAspAsnTyrGly)”, with 70.4 days.

GlyPheAsnAmCysGly: the “First-Order Deamidation Halftimes of GlyXxxAsnYyyGly” value stood at 29.8 days. “GlyPheAsnThrGly (GFNTG; printed: GlyPheAsnThrGly)”: the “First-Order Deamidation Halftimes of GlyXxxAsnYyyGly” value turned out to be 39.0 days. Same read-out and setting: then “GlyGluAsnTrpGly (GENWG; printed: GlyGluAsnTrpGly)”, with 98.4 days; and “GlyIleAsnIleGly (GINIG; printed: GlyIleAsnIleGly)”, with 384 days.

Turning to GlyMetAsnAmCysGly, the “First-Order Deamidation Halftimes of GlyXxxAsnYyyGly” value was found to be 33.8 days.

As for “GlyLysAsnLysGly (GKNKG; printed: GlyLysAsnLysGly)”, the “First-Order Deamidation Halftimes of GlyXxxAsnYyyGly” value came to 53.5 days. Regarding “GlyLeuAsnTrpGly (GLNWG; printed: GlyLeuAsnTrpGly)”, the “First-Order Deamidation Halftimes of GlyXxxAsnYyyGly” value amounted to 74.5 days. On the same count and under the same terms, then “GlyAlaAsnProGly (GANPG; printed: GlyAlaAsnProGly)”, with 7370 days; and GlyValAsnAmCysGly, with 34.7 days. Same read-out and setting: then “GlyAspAsnLeuGly (GDNLG; printed: GlyAspAsnLeuGly)”, with 111 days; and “GlyProAsnCysGly (GPNCG; printed: GlyProAsnCysGly)”, with 60.0 days; and “GlyHisAsnHisGly (GHNHG; printed: GlyHisAsnHisGly)”, with 10.7 days. For GlyAlaAsnAmCysGly, the “First-Order Deamidation Halftimes of GlyXxxAsnYyyGly” value is recorded as 40.6 days.

“GlyGlyAsnProGly (GGNPG; printed: GlyGlyAsnProGly)”: the “First-Order Deamidation Halftimes of GlyXxxAsnYyyGly” value stood at 7170 days.

The data set is the same for the next values; noted with them: pH 7.4, 37.0 ° C., 0.15 M Tris HCl; Gln pentapeptides; 52 values measured, rest derived from surface fitting.
On to “GlyTyrGlnSerGly (GYQSG; printed: GlyTyrGlnSerGly)”, for which the “First-Order Deamidation Halftimes of GlyXxxGlnYyyGly” value is 6400 days. The same measure, in the same setting: then “GlyValGlnAlaGly (GVQAG; printed: GlyValGlnAlaGly)”, with 4500 days; and “GlyTrpGlnMetGly (GWQMG; printed: GlyTrpGlnMetGly)”, with 5300 days; and “GlySerGlnGlyGly (GSQGG; printed: GlySerGlnGlyGly)”, with 700 days. The same measure, in the same setting: then “GlyTrpGlnArgGly (GWQRG; printed: GlyTrpGlnArgGly)”, with 8300 days. On the same count and under the same terms, then “GlyTrpGlnHisGly (GWQHG; printed: GlyTrpGlnHisGly)”, with 7500 days; and “GlyLysGlnThrGly (GKQTG; printed: GlyLysGlnThrGly)”, with 4100 days.

Consider “GlyLysGlnAlaGly (GKQAG; printed: GlyLysGlnAlaGly)”, for which the “First-Order Deamidation Halftimes of GlyXxxGlnYyyGly” value is recorded as 4300 days. With “GlyHisGlnMetGly (GHQMG; printed: GlyHisGlnMetGly)”, the “First-Order Deamidation Halftimes of GlyXxxGlnYyyGly” value was 5200 days.

With “GlyCysGlnProGly (GCQPG; printed: GlyCysGlnProGly)”, the “First-Order Deamidation Halftimes of GlyXxxGlnYyyGly” value amounted to 7100 days.

For the substance “GlySerGlnLysGly (GSQKG; printed: GlySerGlnLysGly)”, the “First-Order Deamidation Halftimes of GlyXxxGlnYyyGly” value amounted to 6300 days. As to “GlyProGlnLeuGly (GPQLG; printed: GlyProGlnLeuGly)”, the “First-Order Deamidation Halftimes of GlyXxxGlnYyyGly” value turned out to be 5800 days. For the substance “GlyProGlnTyrGly (GPQYG; printed: GlyProGlnTyrGly)”, the “First-Order Deamidation Halftimes of GlyXxxGlnYyyGly” value amounted to 10000 days.
